Experimental data published in article PMC11210196.

Test system: CsrA-H6 (Escherichia coli (K-12 MG1655?))
Test: EMSA
Settings: apparent Kd, EMSA: 0.08-0.2 nM RNA, 10 mM MgCl2, 100 mM KCl, 32.5 ng SUPERase In, 37 C 30 min, footprint: 2 nM RNA, 10 mM Tris-HCl pH 7.5, 10 mM MgCl2, 100 mM KCl, 40 ng …

Substance evgA 5' leader (EMSA) has a Kd (two shifted species) of 7 nM.

In the case of gadA 5' leader (EMSA), the Kd (two shifts) is reported as 73 nM.

For gadB 5' leader (EMSA), the Kd (two shifts) was 49 nM.

With gadE 5' leader (EMSA) the Kd was 138 nM.

With ydeO 5' leader (EMSA) the Kd (binds both conformers) was 84 nM.
